What is called Kd is a measure of binding affinity in units of concentration.

The target in the test is bacterially expressed wild-type HRAS (human, UniProt P01112 1-189). Kind of test: ITC.

“And” between values parts separate entries of the source, which are not always exact repeats. Equal values may be shown once. Where no end group is shown, it is not given here.

bacterially expressed wild-type HRAS, sequence (P01112 whole entry): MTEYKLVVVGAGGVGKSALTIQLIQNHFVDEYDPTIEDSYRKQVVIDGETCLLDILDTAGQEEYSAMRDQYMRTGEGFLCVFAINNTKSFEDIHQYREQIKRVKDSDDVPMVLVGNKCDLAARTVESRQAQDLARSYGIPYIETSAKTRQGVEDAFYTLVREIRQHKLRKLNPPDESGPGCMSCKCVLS

On to YRLEKQSEPNV-NH2 [S-016-1034 (CDRI-S-016-1034), 11-mer peptide derived from the RAS-Binding-Domain of mSIN1], for which the Kd is 9.54 µM and 8.95 µM.

(Values after paper doi:10.1101/2023.05.06.539669 (bioRxiv, 2023).)
